As a reminder, the Kd is the equilibrium constant for the complex coming apart. One may read the IC50 as the concentration at which inhibition is half-maximal. A low value points to higher potency. In general, EC50 refers to the midpoint of the concentration-response curve. High values mean a need for much substance, low ones an effect from little substance.

Common to all, as to details: both partners purified
Experiment [1] concerns the target T1, recombinant SARS-CoV-2 S1 protein (Kactus Biosystems) (SARS-CoV-2, original wild type …, UniProt P0DTC2). The experiment is described as follows: SPR.
Experiment [2] addresses T1, recombinant SARS-CoV-2 S1 protein …. The experiment is described as follows: SPR. This is another data set of the same source. A general note: In SPR one partner is held on a chip, and binding of the other changes the refractive index at the surface.
The target in experiment [3] is SARS-CoV-2 S1-hFc protein (SARS-CoV-2). The experiment in a line: ELISA.
In experiment [4] the target is SARS-CoV-2 S1-His protein (SARS-CoV-2). The experiment in a line: ELISA. Background: In an ELISA, binding on a coated surface is turned into a signal by an enzyme label.

B1: 2B11 monoclonal antibody (full-length human IgG1) (antibody, V domains shown)
VH: EVQLVESGGGLVQPGGSLRLSCAASEITVSSNYMNWVRQAPGKGLEWVSVIYSGGTTYYADSVKGRFTISRDNSENTLYLQMNSLRAEDTAVYYCARDLMEVGGMDVWGQGTTVTVSS
VL: LPVLTQPPSASGTPGQRVTISCSGSSSNVENDNVNWFQQQVPGSTPKLVIYNDRLRPSGVPDRFSGSKSGTSAYLAISGLQSEDEADYYCVAWDASLQSYVFGTGTKVTVL
On to B1, for which the Kd in experiment [1] amounted to 4.76 nM; in experiment [2] it was 4.67 nM. In experiment [3], the midpoint of inhibition, the IC50, lay at 2.79 nM. Moreover, a half-maximal response in experiment [4] (EC50) required 0.051 nM.

For the origin of these results see PMC8315086 (Cell Discovery, 2021).
